Assay results published in the nanobody polyreactivity screen of Harvey et al. (2022).

Assay: yeast display, Sf9 membrane polyspecificity reagent, FACS + sequencing; frameworks hold sequencing errors
How it was run: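 Nanobodies came from a synthetic yeast display library in Saccharomyces cerevisiae BJ5465, induced with galactose for 36–48 hours and stained for 1 hour at 4 °C with 10% biotinylated, detergent-solubilized Sf9 membrane reagent. Cells were enriched on streptavidin microbeads and then FACS-sorted, with low and high (top ~1%) gates set on anti-HA fluorescence for expression and streptavidin fluorescence for reagent binding. Each polyreactivity label reflects the gate a clone came from. Genes were amplified by colony PCR, sequenced by MiSeq 2 × 250 and filtered by CDR length.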
In the case of “QVRLVESGGGLVQAGGSLRLSCADSGSTLDINAMGWYTQAPGKERELVASISWTGGHTYYADSVKGRFTISRDNAKNTVYLQMNSLKPEDTAVYYCAATHQETVYYFLSIFDDWGQGTQVTLSS”, the “polyreactivity (PSR sort gate)” value is reported as “low polyreactivity”.
For “QVRLVESGGGLVQEGGSLRLSCAASGSTFGDYPMGWYRQAPGKERELVAAITLTGGSTYYADSVKGRFTISRDNAKNTVYLQMNSLKPEDTAVYYCNTDVIRWVGGTWHRYYYWGQGTQVTVSS”, the “polyreactivity (PSR sort gate)” value was “low polyreactivity”.
In the case of “QYQLVESGRGLVQAGGSLRLSCAASGSTFRSYAMGWYRQAPGKERDLVAAITSSGGRTYYADSVKGRFTISRDNAKNTVYLQMNSLKPEDTAVYYCAARTYSWGDWGQGTQVTVSS”, the “polyreactivity (PSR sort gate)” value is reported as “high polyreactivity”.
In the case of “RVQHVESGGGLVQAGGSLRLSCAASGYTFEAYAMGWYRPAPGKERELVAAINYSGGSTYADSVKGRFTISRDNAKNNVYLQMHSLKPEDTAVYYCATRLYGYWTYGFDYWGQGTQVTVSS”, the “polyreactivity (PSR sort gate)” value is reported as “low polyreactivity”.
With “RVQLQESGGGLVQAGGSLRLSCAASGTIFIRGDMGWYRQAPGKEREFVATIETGSNTYYADSEKGRFTISRDNAKNAVYLEMNCLKPGDTAVYYCVVDYQLSGRLRYWGQGTQVTLSS” the “polyreactivity (PSR sort gate)” value was “low polyreactivity”.
With “RVQLQESGGGLVQAGGSLRLSCAASGTIFNRGDMGWYRQAPGKEREFVATIDTGSNTYYADSEKGPFTISRDNAKNAVYLQMNCLKPGATAVYYCVVDYQLSGRLRYWGQGTQVTLSS” the “polyreactivity (PSR sort gate)” value was “low polyreactivity”.
With “RVQLVESGGGLFHAGGSLRLSCAASGRTFPTYDMGWYRQAPGKERELVAAINWSGGSTYYADSVKGRFTISRDNAKNTVYLQINSLKPEDTAVYYCNAELLRPSTLGVYLARNYWGQGSQVTVSS” the “polyreactivity (PSR sort gate)” value was “low polyreactivity”.
For “RVQLVESGGGLVHAGCSLRLSCAASGNTFWYNAMGWYRQAPGKVRELVAAISYSGGGTYYADSVKGRFTISRDNAKNTVYLQMNSLKPEDTAVYYCAADTLQRSFVLYDYWGHGTQVTVSS”, the “polyreactivity (PSR sort gate)” value was “high polyreactivity”.
With “RVQLVESGGGLVKAGGSLRLSCAASGSIFYQYTMGWYRQAPGKERELVATISWSDVSTYYADSVKGRFTISRDNAKNTVYLQMNSLKPEDTAVYYCAALYWGWDRYYGYDYWGQGTQVTVSS” the “polyreactivity (PSR sort gate)” value was “low polyreactivity”.
With “RVQLVESGGGLVQAGGILRLSSAASGSTFPANAMGWYRQAPGKERELVAAITWRAASTYYADSVKGRFTISRDNAKNTVYLQMNSLKPEDTAVYYCARVTNSSAKNTDDYWGQGTQVTVSS” the “polyreactivity (PSR sort gate)” value was “low polyreactivity”.
With “RVQLVESGGGLVQAGGSLRLSCAASGRIFKYYAMGWYRPAPGTERELVASITIGSTTYADSVKGRFTISRDNAMNTVYLHMNSLKPEDTAVYYCNRVYRQRLGRDYWGQGTQVTVSS” the “polyreactivity (PSR sort gate)” value was “high polyreactivity”.
In the case of “RVQLVQSGGGLVQAGGSLRLSCAASGRIFSYNAMGWYRQAPGKERELVAAITFSGGGTYYADSVKGRFTISRDNAKNTVYLQMNSLIPEDTAVYYCNKVSYGYSTYGYWGQGTQVTVSS”, the “polyreactivity (PSR sort gate)” value is reported as “low polyreactivity”.
With “VQLVESGGGLVQAGGSLRLSCAACGSTFYPYAMGWYRPAPGKERELVAAISYSGGSTYYADSVKGRFTISRDNAKNTVYLQMNSLKPEDTAVYYCAARYWYKRFVWGDYWGQGTQVTVSS” the “polyreactivity (PSR sort gate)” value was “high polyreactivity”.
